# Test results taken from publication PMC5973842.
# Columns and labels:
# [1] = target: FITC-labeled eVP35 NPBP (Ebola virus); assay: fluorescence polarisation
# eNP WT (Ebola virus) = assay: fluorescence polarization
# eNP-2 (Ebola virus) = assay: fluorescence polarization
# eNP-3 (Ebola virus) = assay: fluorescence polarization
Substance,Kd [1] [nM],Kd (eNP WT (Ebola virus)) [nM],Kd (eNP-2 (Ebola virus)) [nM],Kd (eNP-3 (Ebola virus)) [nM]
"Ebola virus nucleoprotein, full-length wildtype construct (from UniProt P18272 1-739) (natural protein)",10.6,–,–,–
eNP-3 (Ebola virus nucleoprotein N-terminal construct that includes the first 24 residues) (domain or fragment),12.8,–,–,–
20 nt ssRNA,–,13,68,15
eNP-2 (Ebola virus nucleoprotein N-terminal construct lacking the first 24 residues) (domain or fragment),1.9,–,–,–
